Data on two molecules can be found in article PMC2570039 (Molecular cell, 2008).

Series [1] concerns the target FtsK50C (50 amino acids from FtsKN fused to FtsKC) (E. coli). Nature of the series: […].
Series [2] shares this target. Put plainly: SEC. In general terms: Size exclusion chromatography separates by hydrodynamic size, large species first.
Series [3] deals with the molecule itself. Put plainly: crystal structure.

For orientation: stoichiometry N means the number of molecules, sites or subunits per partner or assembly.

For the molecule “FtsK50C (50 amino acids from FtsKN fused to FtsKC) (domain or fragment)”, the stoichiometry N in series [1] and in series [2] was 6 in each case.

B1: Seleno-methionine-substituted Pseudomonas aeruginosa FtsK γ-domain (GGS-742-811) (domain or fragment)
chain: GGSEGSEDDPLYDEAVRFVTESRRASISAVQRKLKIGYNRAARMIEAMEMAGVVTPMNTNGSREVIAPAPVRD
modifications: seleno-methionine-substituted
In the case of B1, the binding result in series [3] is reported as “binds”.
